From US20030144481A1

What was measured:
[1] = target: human αvβ3 protein (CHEMICON International), soluble (human) (UniProt P06756); assay: cell-based or functional assay
[2] = target: αvβ3 integrin on HUVEC cells (human) (UniProt P06756); assay: HUVEC adhesion to collagen Type IV-coated plates; 10 µg/ml antibody
[3] = target: αvβ3 integrin on C-PAE cells (bovine) (UniProt P80746); assay: C-PAE attachment to Tum-4-coated plates
[4] = target: αvβ3 integrin on HUVEC cells (human) (UniProt P06756); assay: HUVEC attachment to Tumstatin-coated plates; anti-αvβ3 and anti-β1 antibodies used together
[5] = target: αvβ3 integrin on HUVEC cells (human) (UniProt P06756); assay: cell binding to vitronectin-coated plates; 10 µg/ml antibody
[6] = target: αvβ3 integrin on C-PAE cells (bovine) (UniProt P80746); assay: C-PAE attachment to Tum-1-coated plates
[7] = target: αvβ3 integrin on HUVEC cells (human) (UniProt P06756); assay: HUVEC attachment to Tumstatin-coated plates; 10 µg/ml antibody; against control IgG
[8] = target: αvβ3 integrin on HUVEC cells (human) (UniProt P06756); assay: HUVEC attachment to plates coated with E. coli Tumstatin-45-132; 10 µg/ml antibody
[9] = target: αvβ3 integrin on C-PAE cells (bovine) (UniProt P80746); assay: C-PAE attachment to Tum-2-coated plates
[10] = target: integrin β1 subunit on HUVEC cells (human) (UniProt P05556); assay: HUVEC adhesion to collagen Type IV-coated plates; 10 µg/ml antibody
[11] = target: integrin β1 subunit on HUVEC cells (human) (UniProt P05556); assay: cell binding to type IV collagen-coated plates; 10 µg/ml antibody; against control IgG
[12] = target: integrin β1 subunit on HUVEC cells (human) (UniProt P05556); assay: HUVEC adhesion to Arresten-coated plates; 10 µg/ml antibody; blocked pair Arresten / integrin β1
[13] = target: integrin β1 subunit on HUVEC cells (human) (UniProt P05556); assay: HUVEC attachment to Tumstatin-coated plates; 10 µg/ml antibody; against control IgG
[14] = target: integrin β1 subunit on HUVEC cells (human) (UniProt P05556); assay: HUVEC attachment to plates coated with E. coli Tumstatin-45-132; 10 µg/ml antibody

Sequence of αvβ3 integrin on HUVEC cells (human) (P06756 31-1048, chain 1 of 2): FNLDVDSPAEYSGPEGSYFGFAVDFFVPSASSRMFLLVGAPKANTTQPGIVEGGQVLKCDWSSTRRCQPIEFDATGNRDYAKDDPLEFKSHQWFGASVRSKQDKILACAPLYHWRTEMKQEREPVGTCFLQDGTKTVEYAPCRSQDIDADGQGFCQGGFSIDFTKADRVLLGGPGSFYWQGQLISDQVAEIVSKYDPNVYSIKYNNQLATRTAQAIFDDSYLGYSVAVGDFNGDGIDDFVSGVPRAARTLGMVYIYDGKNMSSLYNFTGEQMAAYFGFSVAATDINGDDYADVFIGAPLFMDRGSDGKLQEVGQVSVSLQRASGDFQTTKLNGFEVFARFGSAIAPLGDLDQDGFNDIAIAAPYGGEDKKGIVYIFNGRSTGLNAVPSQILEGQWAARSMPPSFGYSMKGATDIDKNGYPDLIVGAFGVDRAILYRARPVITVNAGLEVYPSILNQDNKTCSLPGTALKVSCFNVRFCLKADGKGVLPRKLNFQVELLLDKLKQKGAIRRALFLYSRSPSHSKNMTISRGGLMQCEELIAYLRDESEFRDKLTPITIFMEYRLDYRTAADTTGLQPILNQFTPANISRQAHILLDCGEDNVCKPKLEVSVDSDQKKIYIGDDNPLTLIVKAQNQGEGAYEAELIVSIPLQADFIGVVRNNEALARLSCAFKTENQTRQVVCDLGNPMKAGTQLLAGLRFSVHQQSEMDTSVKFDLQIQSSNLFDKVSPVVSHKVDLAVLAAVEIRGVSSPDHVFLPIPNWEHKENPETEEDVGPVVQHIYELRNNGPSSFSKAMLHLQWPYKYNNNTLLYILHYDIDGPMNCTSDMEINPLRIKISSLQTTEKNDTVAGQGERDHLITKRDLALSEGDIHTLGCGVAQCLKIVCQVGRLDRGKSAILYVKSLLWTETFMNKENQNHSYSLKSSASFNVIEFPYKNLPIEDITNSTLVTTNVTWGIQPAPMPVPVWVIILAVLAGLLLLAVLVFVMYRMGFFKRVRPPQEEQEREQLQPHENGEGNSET
Sequence of αvβ3 integrin on HUVEC cells (human) (P05106 27-788, chain 2 of 2, further chain): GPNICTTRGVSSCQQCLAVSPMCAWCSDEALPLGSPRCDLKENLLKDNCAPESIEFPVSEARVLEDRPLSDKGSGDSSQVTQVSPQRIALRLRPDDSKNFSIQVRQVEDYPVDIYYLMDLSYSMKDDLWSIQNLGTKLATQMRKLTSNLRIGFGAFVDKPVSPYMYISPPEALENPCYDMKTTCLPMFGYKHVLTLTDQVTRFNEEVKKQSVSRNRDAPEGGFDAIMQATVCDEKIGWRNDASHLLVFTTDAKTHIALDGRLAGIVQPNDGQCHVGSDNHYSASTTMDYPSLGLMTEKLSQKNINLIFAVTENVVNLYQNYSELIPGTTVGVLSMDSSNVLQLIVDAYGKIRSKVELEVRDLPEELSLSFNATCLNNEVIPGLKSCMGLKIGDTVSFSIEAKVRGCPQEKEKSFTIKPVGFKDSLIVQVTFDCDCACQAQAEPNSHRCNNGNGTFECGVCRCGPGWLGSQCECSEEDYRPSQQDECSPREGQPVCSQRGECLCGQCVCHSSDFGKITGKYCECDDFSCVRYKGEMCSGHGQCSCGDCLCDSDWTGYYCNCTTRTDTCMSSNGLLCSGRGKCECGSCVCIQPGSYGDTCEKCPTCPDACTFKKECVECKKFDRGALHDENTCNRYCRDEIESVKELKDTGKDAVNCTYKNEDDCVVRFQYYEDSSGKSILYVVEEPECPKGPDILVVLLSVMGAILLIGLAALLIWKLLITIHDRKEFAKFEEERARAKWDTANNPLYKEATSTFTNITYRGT
Sequence of integrin β1 subunit on HUVEC cells (human) (P05556 21-798): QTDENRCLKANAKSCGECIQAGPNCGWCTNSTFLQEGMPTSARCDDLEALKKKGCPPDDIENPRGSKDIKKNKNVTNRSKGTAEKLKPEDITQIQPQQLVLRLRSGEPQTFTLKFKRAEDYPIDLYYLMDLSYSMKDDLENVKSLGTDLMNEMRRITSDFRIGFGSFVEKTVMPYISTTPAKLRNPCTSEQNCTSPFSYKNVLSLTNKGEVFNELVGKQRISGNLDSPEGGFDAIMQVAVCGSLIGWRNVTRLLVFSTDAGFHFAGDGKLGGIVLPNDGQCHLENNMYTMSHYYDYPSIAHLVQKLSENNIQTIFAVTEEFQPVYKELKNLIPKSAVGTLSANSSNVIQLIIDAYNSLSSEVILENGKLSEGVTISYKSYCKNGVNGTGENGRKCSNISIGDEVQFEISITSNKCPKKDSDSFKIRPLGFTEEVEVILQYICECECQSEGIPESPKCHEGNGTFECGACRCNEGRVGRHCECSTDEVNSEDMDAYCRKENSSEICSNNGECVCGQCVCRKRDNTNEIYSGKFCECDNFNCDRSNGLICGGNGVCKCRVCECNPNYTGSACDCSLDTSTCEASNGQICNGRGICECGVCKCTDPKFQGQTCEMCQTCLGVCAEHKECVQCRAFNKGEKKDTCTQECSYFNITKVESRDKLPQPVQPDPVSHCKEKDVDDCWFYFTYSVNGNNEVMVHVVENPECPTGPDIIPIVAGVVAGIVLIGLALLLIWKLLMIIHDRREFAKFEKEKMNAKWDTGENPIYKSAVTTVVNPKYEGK
Sequence of αvβ3 integrin on C-PAE cells (bovine) (P80746 31-1048): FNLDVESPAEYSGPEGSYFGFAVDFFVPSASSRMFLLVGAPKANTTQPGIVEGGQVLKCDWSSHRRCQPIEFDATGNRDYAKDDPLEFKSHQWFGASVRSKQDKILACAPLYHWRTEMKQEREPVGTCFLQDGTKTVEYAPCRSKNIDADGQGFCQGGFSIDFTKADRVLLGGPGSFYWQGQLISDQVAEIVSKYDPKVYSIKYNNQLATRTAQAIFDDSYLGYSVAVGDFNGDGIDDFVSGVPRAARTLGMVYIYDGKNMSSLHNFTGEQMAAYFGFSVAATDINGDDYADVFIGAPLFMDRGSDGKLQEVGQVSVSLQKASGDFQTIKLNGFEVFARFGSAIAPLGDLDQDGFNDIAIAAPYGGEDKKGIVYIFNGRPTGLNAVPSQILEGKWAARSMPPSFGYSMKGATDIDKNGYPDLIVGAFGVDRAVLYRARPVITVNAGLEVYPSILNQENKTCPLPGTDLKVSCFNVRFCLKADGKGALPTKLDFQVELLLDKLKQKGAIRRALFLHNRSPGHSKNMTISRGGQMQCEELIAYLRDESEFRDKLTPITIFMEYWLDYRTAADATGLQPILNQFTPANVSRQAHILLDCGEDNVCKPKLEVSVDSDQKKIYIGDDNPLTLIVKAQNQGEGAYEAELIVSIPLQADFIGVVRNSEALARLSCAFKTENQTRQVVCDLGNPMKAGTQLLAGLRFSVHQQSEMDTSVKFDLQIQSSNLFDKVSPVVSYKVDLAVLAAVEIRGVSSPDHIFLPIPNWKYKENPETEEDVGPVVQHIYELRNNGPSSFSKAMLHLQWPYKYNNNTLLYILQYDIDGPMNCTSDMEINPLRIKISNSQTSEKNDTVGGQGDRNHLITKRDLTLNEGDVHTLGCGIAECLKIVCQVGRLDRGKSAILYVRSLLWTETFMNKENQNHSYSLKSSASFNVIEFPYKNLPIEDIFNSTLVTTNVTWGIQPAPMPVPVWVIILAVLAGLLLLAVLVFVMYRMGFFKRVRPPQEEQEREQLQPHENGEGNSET

Tum-4 (from UniProt Q01955 1607-1670) (ligand)
recovery of the anti-proliferative effect on WM-164 melanoma cells (methylene blue) [1]: 76.7%

Tum-2 (from UniProt Q01955 1427-1558) (ligand)
recovery of the anti-proliferative effect on C-PAE cells (methylene blue) [1]: 74.1%

monoclonal antibody to αvβ3 integrin (clone LM609, CHEMICON International)
% inhibition of cell adhesion [2]: 15%
% inhibition of cell attachment [3]: 62.6%
% inhibition of cell attachment [4]: 91%
% inhibition of cell binding [5]: 61%
% inhibition of cell attachment [6]: 55.9%
% inhibition of cell attachment [7]: 80%
% inhibition of cell attachment [8]: 47.1%
% inhibition of cell attachment [9]: 69.8%

mouse monoclonal antibody to the human β1 integrin (clone P4C10, Life Technologies/Gibco BRL)
% inhibition of cell adhesion [10]: 40%
% inhibition of cell binding [11]: 53%
% inhibition of cell adhesion [12]: 70%
% inhibition of cell attachment [13]: 54%
% inhibition of cell attachment [14]: 47.5%
